The values that follow come from the supplement of paper PMC10567573.

The chains are these.
B1: TRIM39 (parent)
chain: ERDFPCPVCRKTSRYRSLRPNRQL
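Further: lentivirally expressed fusions sorted by FACS into six bins by GFP to DsRed ratio, PSI derived from sequencing read proportions per bin multiplied by bin number.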

Variants of B1 are the subject of the data set. Put plainly: protein stability index of a GFP-peptide fusion (GPS, HEK-293T) (PSI 1-6); higher = more stable. To be noted: c terminus: a fixed tail appended.
Consider ERDFPCPVCRKTSRPRSLRPNRQL [Y15P], for which the protein stability index turned out to be 2.29.

For the variant ERDFPCPVCRKTSRFRSLRPNRQL [Y15F], the protein stability index came to 2.31. Take ERDFPCPVCRKTSRKRSLRPNRQL [Y15K]: the protein stability index was 3.33. With ERDFPCPVCRKTSRHRSLRPNRQL [Y15H], the protein stability index came out at 2.68. For the variant ERDFPCPVCRKTSRWRSLRPNRQL [Y15W], the protein stability index was 1.95.

As for ERDFPCPVCRKTSRERSLRPNRQL [Y15E], the protein stability index came to 2.19. Regarding ERDFPCPVCRKTSRDRSLRPNRQL [Y15D], the protein stability index was determined as 3.02. Take ERDFPCPVCRKTSRRRSLRPNRQL [Y15R]: the protein stability index was found to be 2.65.

Take ERDFPCPVCRKTSRGRSLRPNRQL [Y15G]: the protein stability index came out at 1.83. ERDFPCPVCRKTSRVRSLRPNRQL [Y15V]: the protein stability index stood at 1.64. For ERDFPCPVCRKTSRMRSLRPNRQL [Y15M], the protein stability index is 1.54.

ERDFPCPVCRKTSRIRSLRPNRQL [Y15I]: the protein stability index is 2.24. As for ERDFPCPVCRKTSRCRSLRPNRQL [Y15C], the protein stability index turned out to be 2.24. Consider ERDFPCPVCRKTSRQRSLRPNRQL [Y15Q], for which the protein stability index came to 2.52. As to ERDFPCPVCRKTSRTRSLRPNRQL [Y15T], the protein stability index is 1.9.

As to ERDFPCPVCRKTSRNRSLRPNRQL [Y15N], the protein stability index is 2.31. ERDFPCPVCRKTSRYRVLRPNRQL [S17V]: the protein stability index came to 2.24. With ERDFPCPVCRKTSRYRELRPNRQL [S17E], the protein stability index was 2.13. Consider ERDFPCPVCRKTSRYRYLRPNRQL [S17Y], for which the protein stability index came out at 1.44. For the variant ERDFPCPVCRKTSRYRCLRPNRQL [S17C], the protein stability index turned out to be 1.71.

ERDFPCPVCRKTSRYRWLRPNRQL [S17W]: the protein stability index came out at 2.31. For ERDFPCPVCRKTSRYRPLRPNRQL [S17P], the protein stability index stood at 2.71. Under ERDFPCPVCRKTSRYRRLRPNRQL [S17R] stands 2.31; under ERDFPCPVCRKTSRYRDLRPNRQL [S17D], 1.85. The result for ERDFPCPVCRKTSRYRGLRPNRQL [S17G] reads 2.15; that for ERDFPCPVCRKTSRYRLLRPNRQL [S17L], 1.69. Turning to ERDFPCPVCRKTSRYRHLRPNRQL [S17H], the protein stability index came out at 1.89.

Consider ERDFPCPVCRKTSRYRQLRPNRQL [S17Q], for which the protein stability index stood at 1.86. For the variant ERDFPCPVCRKTSRYRKLRPNRQL [S17K], the protein stability index turned out to be 2.25. As for ERDFPCPVCRKTSRYRNLRPNRQL [S17N], the protein stability index was found to be 2.22.

Take ERDFPCPVCRKTSRYRTLRPNRQL [S17T]: the protein stability index amounted to 1.45. Take ERDFPCPVCRKTSRYGSLRPNRQL [R16G]: the protein stability index was 1.29. With ERDFPCPVCRKTSRYFSLRPNRQL [R16F], the protein stability index was 2.57. In the case of ERDFPCPVCRKTSRYASLRPNRQL [R16A], the protein stability index is 1.43. Consider ERDFPCPVCRKTSRYESLRPNRQL [R16E], for which the protein stability index was determined as 2.54. ERDFPCPVCRKTSRYHSLRPNRQL [R16H]: the protein stability index came to 2.29.

In the case of ERDFPCPVCRKTSRYYSLRPNRQL [R16Y], the protein stability index was determined as 1.74. Consider ERDFPCPVCRKTSRYPSLRPNRQL [R16P], for which the protein stability index worked out at 2.1. The result for ERDFPCPVCRKTSRYCSLRPNRQL [R16C] reads 2.47; that for ERDFPCPVCRKTSRYKSLRPNRQL [R16K], 2.14; that for ERDFPCPVCRKTSRYLSLRPNRQL [R16L], 1.53. Take ERDFPCPVCRKTSRYISLRPNRQL [R16I]: the protein stability index came out at 1.24. Turning to ERDFPCPVCRKTSRYSSLRPNRQL [R16S], the protein stability index was found to be 2.86. The result for ERDFPCPVCRKTSRYVSLRPNRQL [R16V] reads 2.04. Under ERDFPCPVCRKTSRYNSLRPNRQL [R16N] stands 2.23. For the variant ERDFPCPVCRKTSRYQSLRPNRQL [R16Q], the protein stability index is 1.91. ERDFPCPVCRKTSRYMSLRPNRQL [R16M]: the protein stability index was found to be 1.03. The result for ERDFPCPVCRKTSRYRSARPNRQL [L18A] reads 2.32; that for ERDFPCPVCRKTSRYRSDRPNRQL [L18D], 2.71; that for ERDFPCPVCRKTSRYRSGRPNRQL [L18G], 2.34. For ERDFPCPVCRKTSRYRSFRPNRQL [L18F], the protein stability index amounted to 2.39. On to ERDFPCPVCRKTSRYRSERPNRQL [L18E], for which the protein stability index is 2.1. The result for ERDFPCPVCRKTSRYRSHRPNRQL [L18H] reads 2.68; that for ERDFPCPVCRKTSRYRSCRPNRQL [L18C], 2.24; that for ERDFPCPVCRKTQRYRSLRPNRQL [S13Q], 2.1.

Turning to ERDFPCPVCRKTVRYRSLRPNRQL [S13V], the protein stability index is 2.1. For the variant ERDFPCPVCRKTERYRSLRPNRQL [S13E], the protein stability index worked out at 2.21. ERDFPCPVCRKTARYRSLRPNRQL [S13A]: the protein stability index was 2.01.

ERDFPCPVCRKTKRYRSLRPNRQL [S13K]: the protein stability index turned out to be 1.77. Take ERDFPCPVCRKTNRYRSLRPNRQL [S13N]: the protein stability index turned out to be 2.12. Regarding ERDFPCPVCRKTWRYRSLRPNRQL [S13W], the protein stability index was found to be 2.39. Consider ERDFPCPVCRKTRRYRSLRPNRQL [S13R], for which the protein stability index is 2.49. Take ERDFPCPVCRKTDRYRSLRPNRQL [S13D]: the protein stability index is 2.56. On to ERDFPCPVCRKTHRYRSLRPNRQL [S13H], for which the protein stability index turned out to be 2.82. As for ERDFPCPVCRKTMRYRSLRPNRQL [S13M], the protein stability index amounted to 2.61. On to ERDFPCPVCRKTFRYRSLRPNRQL [S13F], for which the protein stability index was 2.46. Under ERDFPCPVCRKTCRYRSLRPNRQL [S13C] stands 2.82; under ERDFPCPVCRKTIRYRSLRPNRQL [S13I], 2.4. The result for ERDFPCPVCRKTGRYRSLRPNRQL [S13G] reads 2.52; that for ERDFPCPVCRKTLRYRSLRPNRQL [S13L], 2.4; that for ERDFPCPVCRKTPRYRSLRPNRQL [S13P], 2.74. On to ERDFPCPVCRKWSRYRSLRPNRQL [T12W], for which the protein stability index came out at 2.44. Consider ERDFPCPVCRKSSRYRSLRPNRQL [T12S], for which the protein stability index came out at 2.17. On to ERDFPCPVCRKQSRYRSLRPNRQL [T12Q], for which the protein stability index was 1.6. As to ERDFPCPVCRKYSRYRSLRPNRQL [T12Y], the protein stability index turned out to be 1.7.

On to ERDFPCPVCRKVSRYRSLRPNRQL [T12V], for which the protein stability index amounted to 2.02. In the case of ERDFPCPVCRKTSEYRSLRPNRQL [R14E], the protein stability index is 3.71. The result for ERDFPCPVCRKTSQYRSLRPNRQL [R14Q] reads 2; that for ERDFPCPVCRKTSKYRSLRPNRQL [R14K], 1.9; that for ERDFPCPVCRKTSNYRSLRPNRQL [R14N], 1.67. As to ERDFPCPVCRKTSVYRSLRPNRQL [R14V], the protein stability index worked out at 1.39. Turning to ERDFPCPVCRKTSPYRSLRPNRQL [R14P], the protein stability index came out at 1.82. Consider ERDFPCPVCRKTSHYRSLRPNRQL [R14H], for which the protein stability index stood at 2.15.

Regarding ERDFPCPVCRKTSGYRSLRPNRQL [R14G], the protein stability index came out at 2.13. As to ERDFPCPVCRKTSDYRSLRPNRQL [R14D], the protein stability index came out at 2.08.

Turning to ERDFPCPVCRKTSTYRSLRPNRQL [R14T], the protein stability index amounted to 1.58. As for ERDFPCPVCRKTSYYRSLRPNRQL [R14Y], the protein stability index turned out to be 2.42. For ERDFPCPVCRKTSLYRSLRPNRQL [R14L], the protein stability index is 2.09.

Turning to ERDFPCPVCRKTSMYRSLRPNRQL [R14M], the protein stability index turned out to be 1.92. Under ERDFPCPVCRKTSSYRSLRPNRQL [R14S] stands 1.66; under ERDFPCPVCRKTSFYRSLRPNRQL [R14F], 1.96.

As to ERDFPCPVCRKTSCYRSLRPNRQL [R14C], the protein stability index was found to be 2.85.

With ERDFPCPVCRKTSIYRSLRPNRQL [R14I], the protein stability index amounted to 2.28. With ERDFPCPVCRKTSAYRSLRPNRQL [R14A], the protein stability index is 2.46.
